Results on 6 molecules are retold here after article PMC8183676 (Molecular cell, 2020).

Data set [1] has as its target T1, GST-MDA5ΔN (human, UniProt Q9BYX4 287-1025).
T1 sequence (looked up): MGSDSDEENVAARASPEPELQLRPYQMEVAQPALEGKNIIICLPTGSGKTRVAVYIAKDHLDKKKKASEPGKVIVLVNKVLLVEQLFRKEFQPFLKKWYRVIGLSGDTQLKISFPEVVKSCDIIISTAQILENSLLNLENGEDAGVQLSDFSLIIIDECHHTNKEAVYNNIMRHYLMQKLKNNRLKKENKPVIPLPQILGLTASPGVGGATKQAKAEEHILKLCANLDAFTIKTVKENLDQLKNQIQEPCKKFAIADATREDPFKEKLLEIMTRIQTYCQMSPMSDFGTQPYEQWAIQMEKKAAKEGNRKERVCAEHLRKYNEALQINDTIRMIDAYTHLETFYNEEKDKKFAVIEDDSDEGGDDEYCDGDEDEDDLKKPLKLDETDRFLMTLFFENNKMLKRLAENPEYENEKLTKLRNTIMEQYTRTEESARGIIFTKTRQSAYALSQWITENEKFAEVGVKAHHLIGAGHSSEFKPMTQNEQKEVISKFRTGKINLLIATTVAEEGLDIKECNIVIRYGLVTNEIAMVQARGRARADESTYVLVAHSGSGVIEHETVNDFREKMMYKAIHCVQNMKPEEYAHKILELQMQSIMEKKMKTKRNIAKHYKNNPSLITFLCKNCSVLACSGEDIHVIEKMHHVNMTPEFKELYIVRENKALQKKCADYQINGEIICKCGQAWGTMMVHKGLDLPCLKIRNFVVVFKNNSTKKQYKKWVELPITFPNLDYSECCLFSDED
The data set can be described thus: native gel or EMSA. A general note: In EMSA bound probe runs differently from free probe, usually more slowly.

Data set [2] concerns the molecule itself. The data set can be described thus: SEC-MALS.
In data set [3] the target is T2, MDA5ΔN (human, UniProt Q9BYX4 287-1025).
T2 sequence (looked up): T1 sequence (looked up)
Description: native gel or EMSA.

Data set [4] concerns the target T3, full-length MDA5, fluorescein-labelled (human, UniProt Q9BYX4 1-1025, fluorescein-conjugated peptide (LPETGG) joined to the N-terminus with sortase A).
T3 sequence (looked up): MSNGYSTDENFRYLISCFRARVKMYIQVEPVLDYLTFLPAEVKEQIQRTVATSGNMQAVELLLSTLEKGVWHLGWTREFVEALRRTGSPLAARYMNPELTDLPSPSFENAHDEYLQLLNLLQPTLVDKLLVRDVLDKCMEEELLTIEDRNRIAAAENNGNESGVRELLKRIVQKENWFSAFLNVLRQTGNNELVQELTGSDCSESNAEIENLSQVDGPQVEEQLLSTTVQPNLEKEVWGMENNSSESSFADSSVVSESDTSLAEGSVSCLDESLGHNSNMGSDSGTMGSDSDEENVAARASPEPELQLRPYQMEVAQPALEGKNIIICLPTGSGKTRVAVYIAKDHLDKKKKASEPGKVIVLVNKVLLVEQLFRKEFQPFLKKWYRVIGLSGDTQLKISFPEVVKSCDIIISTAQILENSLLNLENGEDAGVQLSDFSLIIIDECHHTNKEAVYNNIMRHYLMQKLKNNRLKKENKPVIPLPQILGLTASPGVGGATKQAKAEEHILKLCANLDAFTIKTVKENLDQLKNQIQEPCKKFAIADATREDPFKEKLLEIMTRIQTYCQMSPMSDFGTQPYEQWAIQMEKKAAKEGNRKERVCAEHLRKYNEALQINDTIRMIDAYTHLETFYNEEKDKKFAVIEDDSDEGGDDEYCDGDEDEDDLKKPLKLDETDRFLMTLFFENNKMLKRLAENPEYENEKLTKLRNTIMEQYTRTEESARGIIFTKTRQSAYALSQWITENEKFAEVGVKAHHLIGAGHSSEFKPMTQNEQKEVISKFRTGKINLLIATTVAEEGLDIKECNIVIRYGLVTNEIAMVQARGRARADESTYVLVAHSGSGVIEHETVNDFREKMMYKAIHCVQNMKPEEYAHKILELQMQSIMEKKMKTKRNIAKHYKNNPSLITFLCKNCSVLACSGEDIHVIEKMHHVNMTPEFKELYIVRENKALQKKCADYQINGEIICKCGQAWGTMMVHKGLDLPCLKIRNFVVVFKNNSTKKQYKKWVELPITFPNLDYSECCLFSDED
Description: native gel or EMSA.

The target of data set [5] is T4, MDA5ΔN, fluorescein-labelled (human, UniProt Q9BYX4 287-1025, fluorescein-conjugated peptide (LPETGG) joined to the N-terminus with sortase A).
T4 sequence (looked up): T1 sequence (looked up)
Description: native gel or EMSA.

Data set [6] has as its target T5, TRIM14^CC-PSpry (human, UniProt Q14142 59-442).
T5 sequence (looked up): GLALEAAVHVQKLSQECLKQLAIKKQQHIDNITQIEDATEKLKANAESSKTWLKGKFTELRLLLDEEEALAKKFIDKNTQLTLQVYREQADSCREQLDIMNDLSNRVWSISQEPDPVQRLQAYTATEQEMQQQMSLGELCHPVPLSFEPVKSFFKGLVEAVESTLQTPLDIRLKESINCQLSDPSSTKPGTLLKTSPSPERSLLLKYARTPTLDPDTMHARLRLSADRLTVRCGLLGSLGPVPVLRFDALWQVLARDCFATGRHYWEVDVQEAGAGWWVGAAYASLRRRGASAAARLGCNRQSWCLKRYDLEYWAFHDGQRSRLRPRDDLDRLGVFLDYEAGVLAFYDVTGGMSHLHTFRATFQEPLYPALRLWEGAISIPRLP
Description: pull-down.

Data set [7] addresses T6, LGP2 (human, UniProt Q96C10 1-678).
T6 sequence (looked up): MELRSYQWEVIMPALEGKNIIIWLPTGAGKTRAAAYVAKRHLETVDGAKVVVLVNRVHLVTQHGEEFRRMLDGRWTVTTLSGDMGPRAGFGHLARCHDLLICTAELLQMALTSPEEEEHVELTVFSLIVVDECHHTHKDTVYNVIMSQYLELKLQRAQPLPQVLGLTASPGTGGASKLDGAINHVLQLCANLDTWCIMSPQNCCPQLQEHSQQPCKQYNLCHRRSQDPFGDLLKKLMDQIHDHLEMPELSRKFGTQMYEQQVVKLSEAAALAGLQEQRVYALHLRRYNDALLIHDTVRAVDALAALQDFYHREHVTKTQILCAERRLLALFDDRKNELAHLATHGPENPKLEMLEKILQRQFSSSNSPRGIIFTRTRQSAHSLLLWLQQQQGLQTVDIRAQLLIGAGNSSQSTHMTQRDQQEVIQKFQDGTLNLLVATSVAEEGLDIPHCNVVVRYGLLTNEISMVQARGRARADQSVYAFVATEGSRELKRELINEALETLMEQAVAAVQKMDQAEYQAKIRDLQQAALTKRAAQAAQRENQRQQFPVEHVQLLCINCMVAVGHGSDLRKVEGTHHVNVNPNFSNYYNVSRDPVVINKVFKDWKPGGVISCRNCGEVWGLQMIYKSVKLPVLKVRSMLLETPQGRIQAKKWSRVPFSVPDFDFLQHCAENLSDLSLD
Description: native gel or EMSA.

The target in data set [8] is T7, LGP2 (UniProt Q96C10 1-678).
T7 sequence: T6 sequence (looked up)
The data set can be described thus: EMSA.

B1: TRIM65 CC-PSpry, fluorescein-labelled (domain or fragment, human, UniProt Q6PJ69 125-517, looked up)
chain: HERALLDAERLKREAQLRASLEVTQQQATQAEGQLLELRKQSSQIQNSACILASWVSGKFSSLLQALEIQHTTALRSIEVAKTQALAQARDEEQRLRVHLEAVARHGCRIRELLEQVDEQTFLQESQLLQPPGPLGPLTPLQWDEDQQLGDLKQLLSRLCGLLLEEGSHPGAPAKPVDLAPVEAPGPLAPVPSTVCPLRRKLWQNYRNLTFDPVSANRHFYLSRQDQQVKHCRQSRGPGGPGSFELWQVQCAQSFQAGHHYWEVRASDHSVTLGVSYPQLPRCRLGPHTDNIGRGPCSWGLCVQEDSLQAWHNGEAQRLPGVSGRLLGMDLDLASGCLTFYSLEPQTQPLYTFHALFNQPLTPVFWLLEGRTLTLCHQPGAVFPLGPQEEVLS
modifications: fluorescein-conjugated peptide (LPETGG) joined to the N-terminus with sortase A
In the case of B1, the binding result in data set [1] is given as “binds”.

B2: TRIM65 CC-PSpry (domain or fragment, human, UniProt Q6PJ69 125-517, looked up)
chain: B1 chain
As to B2, the “stoichiometry N” value in data set [2] worked out at 2. Moreover, the affinity in data set [3], expressed as Kd, was 171 nM.

B3: TRIM65 (natural protein, human, UniProt Q6PJ69 1-517, looked up)
chain: MAAQLLEEKLTCAICLGLYQDPVTLPCGHNFCGACIRDWWDRCGKACPECREPFPDGAELRRNVALSGVLEVVRAGPARDPGPDPGPGPDPAARCPRHGRPLELFCRTEGRCVCSVCTVRECRLHERALLDAERLKREAQLRASLEVTQQQATQAEGQLLELRKQSSQIQNSACILASWVSGKFSSLLQALEIQHTTALRSIEVAKTQALAQARDEEQRLRVHLEAVARHGCRIRELLEQVDEQTFLQESQLLQPPGPLGPLTPLQWDEDQQLGDLKQLLSRLCGLLLEEGSHPGAPAKPVDLAPVEAPGPLAPVPSTVCPLRRKLWQNYRNLTFDPVSANRHFYLSRQDQQVKHCRQSRGPGGPGSFELWQVQCAQSFQAGHHYWEVRASDHSVTLGVSYPQLPRCRLGPHTDNIGRGPCSWGLCVQEDSLQAWHNGEAQRLPGVSGRLLGMDLDLASGCLTFYSLEPQTQPLYTFHALFNQPLTPVFWLLEGRTLTLCHQPGAVFPLGPQEEVLS
Take B3: the binding result in data set [3], in data set [4] and in data set [5] was “binds” in each case.

B4: GST-LGP2^Hel2i2 (domain or fragment, human, UniProt Q96C10 211-487, looked up)
chain: SQQPCKQYNLCHRRSQDPFGDLLKKLMDQIHDHLEMPELSRKFGTQMYEQQVVKLSEAAALAGLQEQRVYALHLRRYNDALLIHDTVRAVDALAALQDFYHREHVTKTQILCAERRLLALFDDRKNELAHLATHGPENPKLEMLEKILQRQFSSSNSPRGIIFTRTRQSAHSLLLWLQQQQGLQTVDIRAQLLIGAGNSSQSTHMTQRDQQEVIQKFQDGTLNLLVATSVAEEGLDIPHCNVVVRYGLLTNEISMVQARGRARADQSVYAFVATEGS
On to B4, for which the binding result in data set [6] is given as “binds”.

B5: GST-TRIM14^PSpry (domain or fragment, human, UniProt Q14142 238-442, looked up)
chain: QLSDPSSTKPGTLLKTSPSPERSLLLKYARTPTLDPDTMHARLRLSADRLTVRCGLLGSLGPVPVLRFDALWQVLARDCFATGRHYWEVDVQEAGAGWWVGAAYASLRRRGASAAARLGCNRQSWCLKRYDLEYWAFHDGQRSRLRPRDDLDRLGVFLDYEAGVLAFYDVTGGMSHLHTFRATFQEPLYPALRLWEGAISIPRLP
Regarding B5, in data set [7], the binding result is listed as “binds”.

B6: 15 bp dsRNA (dsRNA)
RNA 1: AGGGCCCGGGAUGCU
RNA 2: AGCAUCCCGGGCCCU
For B6, the binding result in data set [8] is reported as “binds”.

By stoichiometry N is commonly meant a count of units in the complex or per binding partner. Broadly, the Kd is a measure of binding affinity in units of concentration. A high value points to a looser complex.
